Reference: paper PMC13108886, “Constitutively active RAS prolongs Cdc42 signalling, while MAPK signalling is attenuated during fission yeast mating” (PLOS Genetics, 2026)
Blank lines part the entries; values can stand above or below the binder they belong to.

Assays:
[1] = target: T1, GTP-loaded Ras1.G17V (1-172) (Schizosaccharomyces pombe (fission …, UniProt P08647 1-172, G17V)); assay: pull-down; GST-Byr2 (65-180) or GST-Scd1 (760-872) on glutathione sepharose 4B beads, GTP-loaded Ras1.G17V (1-172) added; buffer A (20 mM Tris-Cl pH 7.5, 100 mM NaCl, 5 mM MgCl2, 1 mM beta-mercaptoethanol), 4 C, 30 min; bound fraction on SDS-PAGE, InstantBlue stain; details: both partners purified
T1 construct: stopped with 20.5 mM MgCl2) just before the pull-down; Cloned in the vector pLEICS1; also called Ras1.G17V^GTP; source: E. coli BL21 Rosetta, purified (Ni Sepharose 6 Fast Flow), loaded with GTP
T1 sequence (looked up): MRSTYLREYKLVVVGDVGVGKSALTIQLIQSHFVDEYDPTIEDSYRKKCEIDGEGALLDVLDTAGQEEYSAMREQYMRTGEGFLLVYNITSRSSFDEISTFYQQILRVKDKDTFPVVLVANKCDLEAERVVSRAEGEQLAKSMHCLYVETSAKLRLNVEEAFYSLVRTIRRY

[2] = target: T1, GTP-loaded Ras1.G17V (1-172); assay: pull-down; competition: GST-Byr2 (65-180) on glutathione beads, GTP-loaded Ras1.G17V (1-172) with or without the Scd1 (760-872) fragment; buffer A, 4 C, 30 min; Ras1.G17V band on the stained gel quantified with Fiji; details: both partners purified

binding result [1]: binds
B1: GST-Byr2 (65-180) (domain or fragment, UniProt P28829 65-180, looked up)
chain: REFPRPCILRFIACNGQTRAVQSRGDYQKTLAIALKKFSLEDASKFIVCVSQSSRIKLITEEEFKQICFNSSSPERDRLIIVPKEKPCPSFEDLRRSWEIELAQPAALSSQSSLSP
notes: Cloned in the vector pLEICS4; also called GST-Byr2-RBD; Byr2-RBD; source: E. coli BL21 Rosetta, purified (glutathione sepharose 4B), kept on the beads; not shown: GST, N-terminal, kept

binding result [1]: binds
B2: GST-Scd1 (760-872) (domain or fragment, UniProt P40995 760-872, looked up)
chain: SSSTSTSLSVRNTTNVKIRLRLHEVSLVLVVAHDITFDELLAKVEHKIKLCGILKQAVPFRVRLKYVDEDGDFITITSDEDVLMAFETCTFELMDPVHNKGMDTVSLHVVVYF
notes: Cloned in the vector pLEICS4; also called GST-Scd1-PB1; Scd1-PB1; source: E. coli BL21 Rosetta, purified (glutathione sepharose 4B), kept on the beads; not shown: GST, N-terminal, kept

binding result [2]: binds
B3: Scd1 (760-872) fragment (domain or fragment, UniProt P40995 760-872, looked up)
chain: B2 chain
notes: legend and methods say the fragment freed of GST; also called Scd1-PB1; source: E. coli BL21 Rosetta; not shown: GST, N-terminal, cleaved
